From the supplement of paper PMC9112550, “Optimization of the antimicrobial peptide Bac7 by deep mutational scanning” (BMC Biology, 2022)

Test system: Escherichia coli TOP10
Test: shrunken log2 fold change of peptide-encoding DNA abundance (4.5 h post-induction vs induction); higher = less antimicrobial activity (less host growth inhibition)
Settings: time post-induction: 4.5 h; library: site-saturation at positions 5, 18, 19, 20
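Note: peptides expressed intracellularly from a pBAD plasmid library in pooled LB shake-flask culture, induced with 0.3% L-arabinose, DNA abundance read by NGS, three biological replicates, DESeq2 with apeglm shrinkage.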

Sequence	shrunken log2 fold change
RRIRSRPPRLPRPRPRPATWPRP	-0.136
RRIRCRPPRLPRPRPRPFCMPRP	0.174
RRIRMRPPRLPRPRPRPGEVPRP	0.884
RRIRLRPPRLPRPRPRPFGHPRP	-0.177
RRIRERPPRLPRPRPRPRDGPRP	0.237
RRIRVRPPRLPRPRPRPDIDPRP	-0.205
RRIRVRPPRLPRPRPRPCEQPRP	0.211
RRIRRRPPRLPRPRPRPSYPPRP	-0.115
RRIRLRPPRLPRPRPRPCKWPRP	0.117
RRIRKRPPRLPRPRPRPFGKPRP	0.144
RRIRSRPPRLPRPRPRPGCFPRP	0.225
RRIRERPPRLPRPRPRPAPSPRP	0.116
RRIRHRPPRLPRPRPRPLEWPRP	-0.0135
RRIRCRPPRLPRPRPRPNLEPRP	-0.267
RRIRTRPPRLPRPRPRPWWEPRP	0.00671
RRIRNRPPRLPRPRPRPKSYPRP	-0.0423
RRIRARPPRLPRPRPRPFNMPRP	-0.201
RRIRTRPPRLPRPRPRPIYVPRP	-0.34
RRIRGRPPRLPRPRPRPGVDPRP	0.951
RRIRRRPPRLPRPRPRPCLIPRP	-0.38
RRIRIRPPRLPRPRPRPNNQPRP	-0.836
RRIRERPPRLPRPRPRPWIQPRP	-0.0122
RRIRKRPPRLPRPRPRPMAGPRP	0.0722
RRIRWRPPRLPRPRPRPGRCPRP	0.897
RRIRTRPPRLPRPRPRPQGCPRP	0.0515

Sequence	shrunken log2 fold change
RRIRMRPPRLPRPRPRPAQSPRP	2.88
RRIRSRPPRLPRPRPRPPFIPRP	-0.252
RRIRCRPPRLPRPRPRPEYKPRP	-0.415
RRIRNRPPRLPRPRPRPITMPRP	-0.533
RRIRFRPPRLPRPRPRPGEWPRP	-0.0225
RRIRHRPPRLPRPRPRPGGHPRP	0.125
RRIRERPPRLPRPRPRPEPLPRP	-0.091
RRIRGRPPRLPRPRPRPTKHPRP	0.385
RRIRQRPPRLPRPRPRPHLQPRP	-0.0325
RRIRCRPPRLPRPRPRPDTEPRP	-0.0455
RRIRPRPPRLPRPRPRPFYYPRP	-0.838
RRIRNRPPRLPRPRPRPWIKPRP	-0.739
RRIRVRPPRLPRPRPRPRTFPRP	-0.284
RRIRMRPPRLPRPRPRPAEQPRP	0.395
RRIRIRPPRLPRPRPRPCLWPRP	0.0796
RRIRNRPPRLPRPRPRPWMSPRP	-0.0131
RRIRRRPPRLPRPRPRPVCCPRP	0.158
RRIRCRPPRLPRPRPRPFDKPRP	-0.493
RRIRFRPPRLPRPRPRPQYRPRP	-0.171
RRIRWRPPRLPRPRPRPIHEPRP	0.041
RRIRIRPPRLPRPRPRPGTRPRP	0.0641
RRIRHRPPRLPRPRPRPKPNPRP	0.225
RRIRWRPPRLPRPRPRPSPKPRP	0.403
RRIRYRPPRLPRPRPRPHRRPRP	-0.0466
RRIRFRPPRLPRPRPRPNEFPRP	-0.0262

Sequence	shrunken log2 fold change
RRIRDRPPRLPRPRPRPFRFPRP	-0.0342
RRIRARPPRLPRPRPRPWLGPRP	0.417
RRIRYRPPRLPRPRPRPWWIPRP	-0.00327
RRIRSRPPRLPRPRPRPYQRPRP	-0.103
RRIRQRPPRLPRPRPRPDLDPRP	0.0552
RRIRVRPPRLPRPRPRPMINPRP	-0.257
RRIRMRPPRLPRPRPRPQSYPRP	0.00618
RRIRGRPPRLPRPRPRPDNHPRP	0.125
RRIRFRPPRLPRPRPRPLFDPRP	-0.578
RRIRHRPPRLPRPRPRPHCNPRP	-0.158
RRIRQRPPRLPRPRPRPSCIPRP	-0.238
RRIRLRPPRLPRPRPRPKKQPRP	-0.046
RRIRPRPPRLPRPRPRPFGRPRP	-0.314
RRIRDRPPRLPRPRPRPSSSPRP	0.135
RRIRIRPPRLPRPRPRPQRPPRP	-0.465
RRIRVRPPRLPRPRPRPRYAPRP	-0.000525
RRIRHRPPRLPRPRPRPRPCPRP	0.227
RRIRCRPPRLPRPRPRPHQFPRP	0.0354
RRIRQRPPRLPRPRPRPEMSPRP	0.161
RRIRERPPRLPRPRPRPCLYPRP	-0.489
RRIRGRPPRLPRPRPRPNTRPRP	0.528
RRIRRRPPRLPRPRPRPHEYPRP	-0.0758
RRIRGRPPRLPRPRPRPNAFPRP	0.665
RRIRMRPPRLPRPRPRPFLDPRP	-0.198
RRIRHRPPRLPRPRPRPNGMPRP	-0.0133

Sequence	shrunken log2 fold change
RRIRSRPPRLPRPRPRPDSVPRP	0.107
RRIRGRPPRLPRPRPRPEDGPRP	1.31
RRIRGRPPRLPRPRPRPLFEPRP	0.739
RRIRRRPPRLPRPRPRPRHAPRP	0.746
RRIRGRPPRLPRPRPRPVYSPRP	-0.36
RRIRVRPPRLPRPRPRPSDLPRP	-0.196
RRIRSRPPRLPRPRPRPSRAPRP	0.281
RRIRCRPPRLPRPRPRPNPVPRP	-0.209
RRIRSRPPRLPRPRPRPWSRPRP	-0.199
RRIRSRPPRLPRPRPRPYLLPRP	-0.613
RRIRIRPPRLPRPRPRPWIYPRP	-0.126
RRIRERPPRLPRPRPRPKINPRP	-0.488
RRIRTRPPRLPRPRPRPFKAPRP	0.0168
RRIRARPPRLPRPRPRPKWEPRP	0.0262
RRIRQRPPRLPRPRPRPPGYPRP	0.225
RRIRHRPPRLPRPRPRPIYGPRP	-0.0133
RRIRVRPPRLPRPRPRPRFWPRP	0.64
RRIRMRPPRLPRPRPRPEFWPRP	0.893
RRIRSRPPRLPRPRPRPMWHPRP	-0.332
RRIRSRPPRLPRPRPRPSQLPRP	-0.302
RRIRRRPPRLPRPRPRPSMVPRP	-0.298
RRIRYRPPRLPRPRPRPVQQPRP	-0.00101
RRIRRRPPRLPRPRPRPCTHPRP	0.176
RRIRHRPPRLPRPRPRPMRHPRP	-0.0546
RRIRIRPPRLPRPRPRPREWPRP	0.0237

Sequence	shrunken log2 fold change
RRIRYRPPRLPRPRPRPNIQPRP	-1.58
RRIRYRPPRLPRPRPRPDTAPRP	-0.343
RRIRIRPPRLPRPRPRPWMFPRP	-0.261
RRIRYRPPRLPRPRPRPVYHPRP	-0.586
RRIRHRPPRLPRPRPRPSFRPRP	-0.15
RRIRKRPPRLPRPRPRPVHCPRP	0.0295
RRIRGRPPRLPRPRPRPWTPPRP	0.75
RRIRPRPPRLPRPRPRPMTEPRP	-0.0153
RRIRQRPPRLPRPRPRPHIRPRP	-0.209
RRIRERPPRLPRPRPRPHGGPRP	-0.0234
RRIRYRPPRLPRPRPRPVKAPRP	-0.0854
RRIRDRPPRLPRPRPRPSQDPRP	-0.0683
RRIRHRPPRLPRPRPRPPFVPRP	0.0135
RRIRIRPPRLPRPRPRPHCKPRP	-0.147
RRIRKRPPRLPRPRPRPAQSPRP	0.0619
RRIRGRPPRLPRPRPRPQSKPRP	0.348
RRIRHRPPRLPRPRPRPSHCPRP	-0.0642
RRIRGRPPRLPRPRPRPLFRPRP	0.444
RRIRPRPPRLPRPRPRPSTNPRP	-0.301
RRIRERPPRLPRPRPRPVVFPRP	-0.0884
RRIRYRPPRLPRPRPRPCEYPRP	-0.138
RRIRPRPPRLPRPRPRPCVLPRP	-0.0304
RRIRKRPPRLPRPRPRPGPQPRP	0.561
RRIRGRPPRLPRPRPRPPIWPRP	0.67
RRIRGRPPRLPRPRPRPYMWPRP	-0.361
